Laboratory results reported in US20240383982A1 (Genmab, published 2024).

Assays:
[1] = target: T1, mouse B7H4 ECD-His (R&D Systems, cat. no. 2154-B7-050) (mouse, UniProt Q7TSP5 29-256); test: BLI (Octet HTX); antibody on anti-human IgG Fc capture sensor, mouse B7H4 ECD-His in solution; 1st experiment
T1 construct: Bought ECD-His protein (26.6 kDa); also called mouse B7H4 extracellular domain
T1 sequence: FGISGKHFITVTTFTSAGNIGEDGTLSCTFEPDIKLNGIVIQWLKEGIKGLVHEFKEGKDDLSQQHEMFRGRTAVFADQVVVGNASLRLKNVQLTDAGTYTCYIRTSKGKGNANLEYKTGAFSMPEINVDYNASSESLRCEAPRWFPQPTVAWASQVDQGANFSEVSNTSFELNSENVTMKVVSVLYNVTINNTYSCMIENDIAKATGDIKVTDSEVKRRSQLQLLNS
Protocol: (§1) Target binding affinity of B7H4 antibodies was determined by label-free biolayer interferometry (BLI) on an Octet HTX instrument (FortéBio). Experiments were carried out while shaking at 1,000 RPM at 30° C. […] Anti-Human IgG Fc Capture (AHC) biosensors (FortéBio, cat. no. 18-5060) were pre-conditioned by exposure to 10 mM glycine (Sigma-Aldrich, cat. no. 15527) buffer pH 1.7 for 5 s, followed by neutralization in Sample Diluent (FortéBio, cat. no. 18-1048) for 5 s; both steps were repeated 2 times. Next, AHC sensors were loaded with antibody (1 μg/mL in Sample diluent) for 600 s. […] The theoretical molecular mass of human B7H4 and mouse B7H4 (as ECD-His tagged molecules) based on their amino acid sequences (26.8 kDa and 26.6 kDa respectively) were used for calculations. For each antibody a reference sensor was used, which was incubated with Sample Diluent instead of antigen. AHC sensors were regenerated by exposure to 10 mM glycine buffer pH 1.7 for 5 s, followed by neutralization in Sample Diluent for 5 s; both steps were repeated twice. Subsequently sensors were loaded again with antibody for the next cycle of kinetics measurements.
(§2) Data were acquired using Data Acquisition Software v9.0.0.49d (FortéBio) and analyzed with Data Analysis Software v9.0.0.12 (FortéBio). Data traces were corrected per antibody by subtraction of the reference sensor. The Y-axis was aligned to the last 10 s of the baseline, Interstep Correction alignment to dissociation and Savitzky-Golay filtering were applied. Data traces with a response<0.05 nm were excluded from analysis. The data was fitted with the 1:1 Global Full fit model using a window of interest for the association and dissociation times set at 300 s and 200 s respectively.

[2] = target: T2, rat (Rattus norvegicus) B7H4, full length, on HEK-293F cells (rat, UniProt Q501W4 25-257); test: flow cytometry, HEK-293F cells transfected with rat B7H4 [panel Rat B7H4]
T2 construct: Uniprot Q501W4; also called rat B7H4
T2 sequence: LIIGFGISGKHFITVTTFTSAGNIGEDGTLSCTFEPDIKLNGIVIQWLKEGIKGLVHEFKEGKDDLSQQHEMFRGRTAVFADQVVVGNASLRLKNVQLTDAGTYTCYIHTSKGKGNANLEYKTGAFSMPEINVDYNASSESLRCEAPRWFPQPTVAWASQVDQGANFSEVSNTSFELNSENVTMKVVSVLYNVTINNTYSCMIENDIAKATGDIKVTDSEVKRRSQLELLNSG
Protocol: (§3) Cells (3×10⁴ cells/well) were incubated in polystyrene 96-well round-bottom plates (Greiner bio-one, cat. no. 650180) with serial dilutions of antibodies (ranging from 0.000458 to 30 μg/mL in 4-fold dilution steps) in 100 μL PBS/0.1% BSA/0.02% azide (staining buffer) at 4° C. for 30 min. Experiments were performed in technical duplicate. After washing twice in staining buffer, cells were incubated in 50 μL secondary antibody at 4° C. for 30 min. As a secondary antibody, R-Phycoerythrin (PE)-conjugated goat-anti-human IgG F(ab′)₂ (1:500 in FACS buffer; Jackson ImmunoResearch Laboratories, Inc., West Grove, PA, cat. no. 109-116-098), was used. Cells were washed twice in staining buffer, re-suspended in 30 μL FACS buffer containing Topro-3 (1:10,000 dilution) and analyzed on an iQue Screener (Intellicyt Corporation, USA). Binding curves were analyzed using non-linear regression (sigmoidal dose-response with variable slope) using GraphPad Prism V7.02 software (GraphPad Software, San Diego, CA, USA).

[3] = target: T3, pig (Sus scrofa) B7H4, full length, on HEK-293F cells (pig, UniProt Q7Z7D3 26-282 (human entry)); test: flow cytometry, HEK-293F cells transfected with pig B7H4 [panel Pig B7H4]
T3 construct: Uniprot F1SAY4; also called pig B7H4
T3 chain: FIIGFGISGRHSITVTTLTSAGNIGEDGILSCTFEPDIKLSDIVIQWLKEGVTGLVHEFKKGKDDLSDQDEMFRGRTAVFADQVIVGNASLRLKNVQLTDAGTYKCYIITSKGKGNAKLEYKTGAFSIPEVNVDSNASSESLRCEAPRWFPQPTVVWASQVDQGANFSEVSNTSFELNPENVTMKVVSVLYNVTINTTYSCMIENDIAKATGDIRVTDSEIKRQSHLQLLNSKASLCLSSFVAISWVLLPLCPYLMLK
Protocol: as §3

[4] = target: T4, rabbit (Oryctolagus cuniculus) B7H4, full length, on HEK-293F cells (rabbit, UniProt Q7Z7D3 25-282 (human entry)); test: flow cytometry, transiently transfected HEK-293F cells
T4 construct: Uniprot G1TQE8; also called rabbit B7H4
T4 chain: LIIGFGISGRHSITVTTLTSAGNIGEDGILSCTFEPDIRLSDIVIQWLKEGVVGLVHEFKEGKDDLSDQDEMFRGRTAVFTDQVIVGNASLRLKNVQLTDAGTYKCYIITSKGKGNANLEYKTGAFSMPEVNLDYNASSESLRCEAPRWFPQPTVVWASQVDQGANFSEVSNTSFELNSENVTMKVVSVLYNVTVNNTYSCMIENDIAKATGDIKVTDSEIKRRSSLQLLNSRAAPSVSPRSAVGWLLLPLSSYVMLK

[5] = target: T1, mouse B7H4 ECD-His (R&D Systems, cat. …); test: BLI (Octet HTX); antibody on anti-human IgG Fc capture sensor, mouse B7H4 ECD-His in solution; 2nd experiment
Protocol: as §1, §2

[6] = target: T5, B7H4-IgV/B7H3-IgC; test: flow cytometry, HEK cells transiently transfected with B7H4-IgV/B7H3-IgC, PE anti-human IgG F(ab')2 [panel B7H4-IgV/B7H3-IgC]
T5 construct: also called chimeric molecule with the IgV domain of B7H4 and the IgC domain of B7H3
T5 full-length chimeric protein on cells: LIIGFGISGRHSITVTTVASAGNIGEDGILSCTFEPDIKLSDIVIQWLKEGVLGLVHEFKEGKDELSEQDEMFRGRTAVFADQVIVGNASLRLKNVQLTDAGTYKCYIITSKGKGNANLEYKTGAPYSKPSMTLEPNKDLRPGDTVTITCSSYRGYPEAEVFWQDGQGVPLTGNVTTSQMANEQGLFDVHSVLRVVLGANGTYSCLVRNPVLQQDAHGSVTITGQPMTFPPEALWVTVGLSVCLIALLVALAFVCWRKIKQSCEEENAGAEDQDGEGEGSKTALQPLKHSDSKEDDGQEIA
Protocol: After washing twice in FACS buffer, cells were incubated with secondary antibody at 4° C. for 30 min. […] Next, cells were washed twice in FACS buffer, re-suspended in 20 μL FACS buffer and analyzed on an iQue Screener (Intellicyt Corporation, USA).
Further experiments were conducted to study the B7H4 domain specificity of the B7H4 antibodies in more detail, by analysis of full dose-response curves.

[7] = target: T6, recombinant hIgG1 Fc-tagged cynomolgus monkey B7H4 (Creative BioMart, cat. no. VTCN1-1517R) (cynomolgus monkey, UniProt Q7Z7D3 25-259 (human entry)); test: BLI (Octet HTX); Fc-tagged cynomolgus B7H4 coupled to AR2G sensor, bispecific antibody in solution (monovalent B7H4 binding); 1st experiment
T6 construct: Bought protein; also called cynomolgus monkey B7H4 extracellular domain
T6 sequence: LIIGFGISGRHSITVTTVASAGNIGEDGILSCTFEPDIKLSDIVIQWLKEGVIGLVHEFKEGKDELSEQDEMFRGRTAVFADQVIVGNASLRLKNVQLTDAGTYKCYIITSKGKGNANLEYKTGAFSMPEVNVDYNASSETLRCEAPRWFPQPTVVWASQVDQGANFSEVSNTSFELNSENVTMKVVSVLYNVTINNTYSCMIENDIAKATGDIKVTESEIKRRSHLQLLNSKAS
Protocol: In addition, the affinity of for cynomolgus monkey B7H4 was determined by BLI. […] Amine Reactive 2nd Generation (AR2G) biosensors (FortéBio, cat. no. 18-5092) were activated by reaction with 20 mM EDC (N-(3-Dimethylaminopropyl)-N′-ethylcarbodiimide hydrochloride) (FortéBio, cat. no. 18-1033) and 10 mM s-NHS (N-hydroxysulfosuccinimide sodium salt) (FortéBio, cat. no. 18-1067) for 300 s. The activated sensors were loaded with 10 μg/mL recombinant hIgG1 Fc-tagged cynomolgus monkey B7H4 (Creative BioMart, cat. no. VTCN1-1517R) in 10 mM Sodium Acetate pH 4.0 (FortéBio, cat. no. 18-1068) for 600 s and quenched with 1 M ethanolamine pH 8.5 (FortéBio, cat. no. 18-1071) for 300 s. […] A molecular mass of 150 kDa of the antibodies was used for calculations. For each antibody a reference sensor was used, which was incubated with Sample Diluent instead of antibody.
as §2, with “100” for “300”

B1: IgG1-B7H4-C2-FEAR (antibody, V domains shown)
VH: EVQLVQSGAEVKKPGASVKVSCKASGYTFTSYWIGWVRQAPGQGLEWIGDIYPGGGYTNYNEKFKGRVTITRDTSTSTAYLELSSLRSEDTAVYYCARLDGSSYRGAMDSWGQGTLVTVSS
VL: DIQMTQSPSSLSASVGDRVTITCKASQGFNKYVAWYQQKPGKAPKLLIYYTSTLQPGVPSRFSGSGSGRDYTLTISSLQPEDFATYYCLQYGNLLYAFGQGTKVEIKR
notes: Full length IgG1 FEAR, kappa; variable domains from WO2014159835
Kd [1]: 24 nM | koff [1]: 0.00077 s⁻¹ | kon [1]: 33000 M⁻¹ s⁻¹ | binding result [2]: binds | binding result [3]: binds | binding result [4]: binds | Kd [5]: 2.1 nM | koff [5]: 0.00013 s⁻¹ | kon [5]: 63000 M⁻¹ s⁻¹

B2: bsIgG1-huCD3-H101G-FEALxB7H4-C2-FEAR (bispecific antibody)
heavy 1: not shown
light 1: not shown
heavy 2: EVQLVQSGAEVKKPGASVKVSCKASGYTFTSYWIGWVRQAPGQGLEWIGDIYPGGGYTNYNEKFKGRVTITRDTSTSTAYLELSSLRSEDTAVYYCARLDGSSYRGAMDSWGQGTLVTVSSASTKGPSVFPLAPSSKSTSGGTAALGCLVKDYFPEPVTVSWNSGALTSGVHTFPAVLQSSGLYSLSSVVTVPSSSLGTQTYICNVNHKPSNTKVDKRVEPKSCDKTHTCPPCPAPEFEGGPSVFLFPPKPKDTLMISRTPEVTCVVVAVSHEDPEVKFNWYVDGVEVHNAKTKPREEQYNSTYRVVSVLTVLHQDWLNGKEYKCKVSNKALPAPIEKTISKAKGQPREPQVYTLPPSREEMTKNQVSLTCLVKGFYPSDIAVEWESNGQPENNYKTTPPVLDSDGSFFLYSRLTVDKSRWQQGNVFSCSVMHEALHNHYTQKSLSLSPGK
light 2: DIQMTQSPSSLSASVGDRVTITCKASQGFNKYVAWYQQKPGKAPKLLIYYTSTLQPGVPSRFSGSGSGRDYTLTISSLQPEDFATYYCLQYGNLLYAFGQGTKVEIKRTVAAPSVFIFPPSDEQLKSGTASVVCLLNNFYPREAKVQWKVDNALQSGNSQESVTEQDSKDSTYSLSSTLTLSKADYEKHKVYACEVTHQGLSSPVTKSFNRGEC
notes: also called bslgG1-huCD3-H101G-FEALxB7H4-C2-FEAR
EC50 (read off the curve) [6]: ~2 µg/mL

B3: bsIgG1-huCD3-FEALxB7H4-C1-FEAR (bispecific antibody)
heavy 1: not shown
light 1: not shown
heavy 2: QVQLQQWGAGLLKPSETLSLTCAVYGGSFSGYYWSWIRQPPGKGLEWIGEINHSGSTNYNPSLKSRVTISIDTSKNQFSLKLTSVTAADTAVFYCARGLFNWNFDSWGQGTLVTVSSASTKGPSVFPLAPSSKSTSGGTAALGCLVKDYFPEPVTVSWNSGALTSGVHTFPAVLQSSGLYSLSSVVTVPSSSLGTQTYICNVNHKPSNTKVDKRVEPKSCDKTHTCPPCPAPEFEGGPSVFLFPPKPKDTLMISRTPEVTCVVVAVSHEDPEVKFNWYVDGVEVHNAKTKPREEQYNSTYRVVSVLTVLHQDWLNGKEYKCKVSNKALPAPIEKTISKAKGQPREPQVYTLPPSREEMTKNQVSLTCLVKGFYPSDIAVEWESNGQPENNYKTTPPVLDSDGSFFLYSRLTVDKSRWQQGNVFSCSVMHEALHNHYTQKSLSLSPGK
light 2: DIQMTQSPSSLSASVGDRVTITCRASQGIRNDLGWYQQKPGKAPKRLIYGASSLQSGVPSRFSGSGSGTEFTLTISSLQPEDFATYYCLQHNSYPRTFGQGTTVEIKRTVAAPSVFIFPPSDEQLKSGTASVVCLLNNFYPREAKVQWKVDNALQSGNSQESVTEQDSKDSTYSLSSTLTLSKADYEKHKVYACEVTHQGLSSPVTKSFNRGEC
notes: also called bslgG1-huCD3-FEALxB7H4-C1-FEAR
Kd [7]: 5.1 nM | koff [7]: 0.0014 s⁻¹ | kon [7]: 270000 M⁻¹ s⁻¹

B4: IgG1-B7H4-C3-FEAR (antibody, V domains shown)
VH: EVQLVQSGAEVKKPGASVKVSCKASGYTFTNFWIHWVRQAPGQGLEWIGEIDPSDSYTNYNQKFKGRVTITRDTSTSTAYLELSSLRSEDTAVYYCAREITTVDYWGQGTLVTVSS
VL: DIQMTQSPSSLSASVGDRVTITCSATSSISYMHWYQQKPGKAPKGWIYDTSKLAHGVPSRFSGSGSGTDFTLTISSLQPEDFATYYCHQRRSYPFTFGQGTKVEIKR
notes: as for B1
binding result [3]: no binding (tested: 30 µg/ml)
